Here are results for 29 molecules from US20250011410A1 (INVETX, published 2025).

Broadly, the Kd is the free concentration of one partner at which half of the binding sites on the other are occupied at equilibrium, for simple one-to-one binding. A low value points to higher affinity. As a reminder, the koff is a measure of how fast the partners let go of each other. Read a high koff as fast dissociation. As usually defined, the kon is a measure of how fast the partners come together. Low readings indicate slow association, high ones fast association.

First the molecules themselves.
B1: felinized clone 101 Fab-SASA variant D104E (VH) (Fab, V domains shown, not shown: small tags and cut ends)
VH: DVQLVESGGDLVKPGGSLRLTCVASGLSLTSSSMSWVRQAPGKGLQWVSTIYSNGGTYYTDSVKGRFTISKDNAENTLYLQMNNLKTEDTATYYCASIYYYDAEYLHWYFDFWGQGALVTVSS
VL: EIQMTQSPTSLSASVGDRVTITCRASEGISNNLSWYQQTPGKAPKLLIYATSNLHSGVPSRFSGSGSGTDFTLTISSLQPEDFATYYCQQGYKWPLTFGGGTKLEITR
B2: felinized clone 101 Fab-SASA variant N53V (VL) (Fab, V domains shown, not shown: small tags and cut ends)
VH: B1 VH with E104D
VL: B1 VL with N53V
B3: felinized clone 101 Fab-SASA variant G55R (VH) (Fab, V domains shown, not shown: small tags and cut ends)
VH: B1 VH with G55R, E104D
VL: B1 VL
B4: felinized clone 101 Fab-SASA variant S30L (VL) (Fab, V domains shown, not shown: small tags and cut ends)
VH: B1 VH with E104D
VL: B1 VL with S30L
B5: felinized clone 101 Fab-SASA variant F112H (VH) (Fab, V domains shown, not shown: small tags and cut ends)
VH: B1 VH with E104D, F112H
VL: B1 VL
B6: felinized clone 101 Fab-SASA variant N53L (VL) (Fab, V domains shown, not shown: small tags and cut ends)
VH: B1 VH with E104D
VL: B1 VL with N53L
B7: felinized clone 101 Fab-SASA variant D104Q (VH) (Fab, V domains shown, not shown: small tags and cut ends)
VH: B1 VH with E104Q
VL: B1 VL
B8: felinized clone 101 Fab-SASA variant K64E (VH) (Fab, V domains shown, not shown: small tags and cut ends)
VH: B1 VH with K64E, E104D
VL: B1 VL
B9: felinized clone 101 Fab-SASA variant H55M (VL) (Fab, V domains shown, not shown: small tags and cut ends)
VH: B1 VH with E104D
VL: B1 VL with H55M
B10: felinized clone 101 Fab-SASA variant G55Y (VH) (Fab, V domains shown, not shown: small tags and cut ends)
VH: B1 VH with G55Y, E104D
VL: B1 VL
B11: felinized clone 101 Fab-SASA variant H55I (VL) (Fab, V domains shown, not shown: small tags and cut ends)
VH: B1 VH with E104D
VL: B1 VL with H55I
B12: felinized clone 101 Fab-SASA variant D104K (VH) (Fab, V domains shown, not shown: small tags and cut ends)
VH: B1 VH with E104K
VL: B1 VL
B13: felinized clone 101 Fab-SASA variant K64D (VH) (Fab, V domains shown, not shown: small tags and cut ends)
VH: B1 VH with K64D, E104D
VL: B1 VL
B14: felinized clone 101 Fab-SASA variant D104N (VH) (Fab, V domains shown, not shown: small tags and cut ends)
VH: B1 VH with E104N
VL: B1 VL
B15: felinized clone 101 Fab-SASA variant N53M (VL) (Fab, V domains shown, not shown: small tags and cut ends)
VH: B1 VH with E104D
VL: B1 VL with N53M
B16: felinized clone 101 Fab-SASA variant S30A (VL) (Fab, V domains shown, not shown: small tags and cut ends)
VH: B1 VH with E104D
VL: B1 VL with S30A
B17: felinized clone 101 Fab-SASA variant F112E (VH) (Fab, V domains shown, not shown: small tags and cut ends)
VH: B1 VH with E104D, F112E
VL: B1 VL
B18: felinized clone 101 Fab-SASA variant F112N (VH) (Fab, V domains shown, not shown: small tags and cut ends)
VH: B1 VH with E104D, F112N
VL: B1 VL
B19: felinized clone 101 Fab-SASA variant S30P (VL) (Fab, V domains shown, not shown: small tags and cut ends)
VH: B1 VH with E104D
VL: B1 VL with S30P
B20: felinized clone 101 Fab-SASA variant N53I (VL) (Fab, V domains shown, not shown: small tags and cut ends)
VH: B1 VH with E104D
VL: B1 VL with N53I
B21: felinized clone 101 Fab-SASA variant S28H (VH) (Fab, V domains shown, not shown: small tags and cut ends)
VH: B1 VH with S28H, E104D
VL: B1 VL
B22: felinized clone 101 Fab-SASA variant N53K (VL) (Fab, V domains shown, not shown: small tags and cut ends)
VH: B1 VH with E104D
VL: B1 VL with N53K
B23: felinized clone 101 Fab-SASA variant S30Q (VL) (Fab, V domains shown, not shown: small tags and cut ends)
VH: B1 VH with E104D
VL: B1 VL with S30Q
B24: felinized clone 101 Fab-SASA variant R24F (VL) (Fab, V domains shown, not shown: small tags and cut ends)
VH: B1 VH with E104D
VL: B1 VL with R24F
B25: felinized clone 101 Fab-SASA variant H55L (VL) (Fab, V domains shown, not shown: small tags and cut ends)
VH: B1 VH with E104D
VL: B1 VL with H55L
B26: felinized clone 101 Fab-SASA variant L54H (VL) (Fab, V domains shown, not shown: small tags and cut ends)
VH: B1 VH with E104D
VL: B1 VL with L54H
B27: felinized clone 101 Fab-SASA variant N31Q (VL) (Fab, V domains shown, not shown: small tags and cut ends)
VH: B1 VH with E104D
VL: B1 VL with N31Q
B28: felinized clone 101 Fab-SASA variant N53H (VL) (Fab, V domains shown, not shown: small tags and cut ends)
VH: B1 VH with E104D
VL: B1 VL with N53H
B29: felinized clone 101 Fab-SASA variant F112P (VH) (Fab, V domains shown, not shown: small tags and cut ends)
VH: B1 VH with E104D, F112P
VL: B1 VL

Where a chain is given by its changes, count along the chain named. In names and notes the source's numbering stands. Several values for one entry are separate records, joined by “and”; a condition that tells them apart may be missing. Equal values may be shown once.

The target in this test is T1, canine NGF tagged at the C-terminus with the Flag tag (canine, UniProt A0A8I3PYI3 122-241).
T1 construct: mature; Expressed with baculovirus technology; also called feline NGF (processed form identical)
T1 sequence (A0A8I3PYI3 entry or part of it): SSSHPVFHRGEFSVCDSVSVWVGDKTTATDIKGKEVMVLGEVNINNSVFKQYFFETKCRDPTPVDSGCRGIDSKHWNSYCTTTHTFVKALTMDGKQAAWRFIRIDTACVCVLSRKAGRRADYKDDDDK
Kind of test: SPR off-rate screen, Fab-SASA on BSA chip.
For B1, the Kd is 1.8 nM, the “Ratio WT-kd/clone-kd” value was determined as 2.21, the koff was 0.000426 s⁻¹ and the kon came out at 237000 M⁻¹ s⁻¹.
Regarding B2, binding was characterised by a dissociation constant (Kd) of 1.42 nM, the “Ratio WT-kd/clone-kd” value stood at 2.32, the koff came out at 0.000407 s⁻¹ and the kon amounted to 288000 M⁻¹ s⁻¹.
For B3, the Kd stood at 1.23 nM, the “Ratio WT-kd/clone-kd” value stood at 6.41, the koff came out at 0.000147 s⁻¹ and the kon was 120000 M⁻¹ s⁻¹.
For B4, the Kd stood at 1.87 nM, the “Ratio WT-kd/clone-kd” value amounted to 1.86, the koff was determined as 0.000507 s⁻¹ and the kon came to 270000 M⁻¹ s⁻¹.
For B5 the same measures were 1.95 nM, 1.48, 0.000639 s⁻¹ and 328000 M⁻¹ s⁻¹.
The matching figures for B6: 2.08 nM, 1.41, 0.000667 s⁻¹ and 321000 M⁻¹ s⁻¹.
As for B7, the Kd came out at 2.17 nM, the “Ratio WT-kd/clone-kd” value stood at 1.97, the koff is 0.000478 s⁻¹ and the kon turned out to be 220000 M⁻¹ s⁻¹.
For B8 the same measures were 2.42 nM, 1.98, 0.000476 s⁻¹ and 196000 M⁻¹ s⁻¹.
For B9 the same measures were 0.935 nM, 3.02, 0.000312 s⁻¹ and 333000 M⁻¹ s⁻¹.
For B10 the same measures were 1.83 nM, 2.25, 0.000419 s⁻¹ and 229000 M⁻¹ s⁻¹.
For the molecule B11, binding was characterised by a dissociation constant (Kd) of 1.31 nM, the “Ratio WT-kd/clone-kd” value is 2.16, the koff was found to be 0.000436 s⁻¹ and the kon amounted to 334000 M⁻¹ s⁻¹.
The matching figures for B12: 5.45 nM, 2.84, 0.000332 s⁻¹ and 60900 M⁻¹ s⁻¹.
For B13 the same measures were 1.63 nM, 1.7, 0.000554 s⁻¹ and 340000 M⁻¹ s⁻¹.
Consider B14, for which binding was put at a Kd of 1.87 nM, the “Ratio WT-kd/clone-kd” value was determined as 2.11, the koff stood at 0.000446 s⁻¹ and the kon is 239000 M⁻¹ s⁻¹.
As for B15, the Kd was determined as 1.87 nM, the “Ratio WT-kd/clone-kd” value came out at 1.46, the koff worked out at 0.000648 s⁻¹ and the kon is 346000 M⁻¹ s⁻¹.
The matching figures for B16: 1.05 nM, 3.23, 0.000292 s⁻¹ and 277000 M⁻¹ s⁻¹.
Regarding B17, the Kd was 1.41 nM and 2.41 nM; the koff is 0.000399 s⁻¹ and 0.000708 s⁻¹; the kon is 284000 M⁻¹ s⁻¹ and 294000 M⁻¹ s⁻¹.
Regarding B18, the Kd was found to be 1.85 nM, the “Ratio WT-kd/clone-kd” value is 1.47, the koff was 0.000643 s⁻¹ and the kon turned out to be 347000 M⁻¹ s⁻¹.
The matching figures for B19: 2.56 nM, 1.41, 0.00067 s⁻¹ and 262000 M⁻¹ s⁻¹.
The matching figures for B20: 1.41 nM, 2.42, 0.000389 s⁻¹ and 276000 M⁻¹ s⁻¹.
B21: the Kd is 2.55 nM, the “Ratio WT-kd/clone-kd” value is 1.18, the koff was 0.000802 s⁻¹ and the kon stood at 315000 M⁻¹ s⁻¹.
For B22 the same measures were 2.04 nM, 1.58, 0.000596 s⁻¹ and 292000 M⁻¹ s⁻¹.
As to B23, binding was put at a Kd of 1.25 nM, the “Ratio WT-kd/clone-kd” value was 2.91, the koff came out at 0.000324 s⁻¹ and the kon came out at 259000 M⁻¹ s⁻¹.
The matching figures for B24: 2.28 nM, 1.44, 0.000655 s⁻¹ and 287000 M⁻¹ s⁻¹.
As for B25, binding was characterised by a dissociation constant (Kd) of 1.58 nM, the “Ratio WT-kd/clone-kd” value came to 2.26, the koff was 0.000418 s⁻¹ and the kon was determined as 264000 M⁻¹ s⁻¹.
For B26 the same measures were 1.65 nM, 1.68, 0.00056 s⁻¹ and 340000 M⁻¹ s⁻¹.
The matching figures for B27: 1.47 nM, 1.96, 0.00048 s⁻¹ and 327000 M⁻¹ s⁻¹.
In the case of B28, binding was put at a Kd of 1.95 nM, the “Ratio WT-kd/clone-kd” value worked out at 1.5, the koff was 0.000627 s⁻¹ and the kon is 322000 M⁻¹ s⁻¹.
The matching figures for B29: 1.39 nM, 1.71, 0.000552 s⁻¹ and 398000 M⁻¹ s⁻¹.
